# Source: the supplement of paper PMC10724198
# ± gives the standard deviation of the averaged measurements.
# Test system: Saccharomyces cerevisiae
# Experiment: protein stability index of tFT-peptide fusion (C-terminal peptide) (PSI (0-1 scale)); higher = more stable (slower turnover)
# Conditions: genetic background: wild type; temperature: 30 C
# Method: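 Multiplexed protein stability (MPS) profiling in S. cerevisiae. Random 12-aa peptides (tFT-X12 library) are fused to the C-terminus of a sfGFP-mCherry tandem fluorescent timer, after mCherry and a GGGS linker. Cells are FACS-sorted into 8 mCherry/sfGFP bins and deep-sequenced. The protein stability index (PSI) is the read-weighted bin average, scaled from 0 (unstable) to 1 (stable). Only peptides with >10 reads are reported; cells were grown at 30 °C in SC-His with glucose.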
# 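Further: PSI is a weighted mean of sequencing reads over stability bins, variants kept only with over 10 reads, mCherry proximal and sfGFP distal, peptide attached via GGGS linker.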
row,Sequence,protein stability index
1,FPVSLSSVRMFV,0.6254 ± 0.0032
2,FPWPDLPSLLPQ,0.8 ± 0.14
3,FQMLPLGHQFPQ,0.736 ± 0.0087
4,FRAAGFLAGRYR,0.738 ± 0.039
5,FRDEGYCFADLV,0.71 ± 0.094
6,FRFLFSPSRPPF,0.633 ± 0.05
7,FRFTSSPVFSWL,0.708 ± 0.014
8,FRLGIKFYTLAV,0.514 ± 0.01
9,FRLGTMYDILPL,0.69 ± 0.023
10,FRLPPRPPLTIP,0.6726 ± 0.0062
11,FRLQSLFPYVVK,0.604 ± 0.047
12,FRSHGHLSQNSY,0.679 ± 0.044
13,FSASLLWFKEFW,0.685 ± 0.024
14,FSASLPLSPSPA,0.6784 ± 0.002
15,FSGGGRGLVGEV,0.7 ± 0.039
16,FSGLFAFGRVVV,0.687 ± 0.056
17,FSGLSPPRPEFV,0.708 ± 0.0089
18,FSIRALGSLGVF,0.693 ± 0.027
19,FSLLPFFRHIFL,0.637 ± 0.025
20,FSLPRHFRLYRR,0.713 ± 0.036
21,FSLPSLLPDPPS,0.579 ± 0.011
22,FSPHTPPRRLPL,0.721 ± 0.066
23,FSPLTFLLSFPL,0.679 ± 0.019
24,FSPSPPPPPFPL,0.659 ± 0.024
25,FSSLLLMEVFLP,0.686 ± 0.011
26,FSVGGLVDGRLW,0.79 ± 0.026

row,Sequence,protein stability index
1,FSVPPLPLPPRL,0.757 ± 0.095
2,FSVSSSLSSFRA,0.717 ± 0.03
3,FTSGNSWLAVFL,0.731 ± 0.027
4,FVFSGLSGDFRG,0.649 ± 0.054
5,FVFSIPPPPRPL,0.59 ± 0.15
6,FVLARLTYSILI,0.482 ± 0.047
7,FVLLGVRGGAGW,0.698 ± 0.021
8,FVRWCFGRRVLG,0.619 ± 0.0027
9,FVVGGGALGCYA,0.661 ± 0.019
10,FVVSSLYSYSYR,0.56 ± 0.015
11,FVWAGVGCWSEA,0.723 ± 0.023
12,FVWSGVGGSGVG,0.679 ± 0.028
13,FWERWDLFCGLC,0.702 ± 0.1
14,FWSCCCTLLFCV,0.5974 ± 0.002
15,FYLMSDTNLPAL,0.664 ± 0.021
16,FYSRSVTLEVLH,0.605 ± 0.023
17,FYWFPYYFSHLH,0.602 ± 0.048
18,GAAGGRGRGTAW,0.619 ± 0.15
19,GACSIVFYKVKR,0.653 ± 0.048
20,GAGGSAGARSAE,0.702 ± 0.03
21,GAGRGGGRGRRW,0.661 ± 0.031
22,GAGRVRAPGRWP,0.6965 ± 0.0035
23,GAGSGTRQPKPR,0.617 ± 0.0076
24,GAGSRRRNWGGW,0.711 ± 0.0081
25,GAILQVEAITHN,0.657 ± 0.068
26,GALVEGVFGHVR,0.658 ± 0.0066

row,Sequence,protein stability index
1,GAPPPAFPISSP,0.648 ± 0.05
2,GAQVGVRFLFSI,0.55 ± 0.011
3,GARHTALCCPMG,0.623 ± 0.041
4,GARRGVSERSPA,0.647 ± 0.041
5,GASGGNRTGRRS,0.681 ± 0.022
6,GASGWGGGGRGR,0.767 ± 0.14
7,GATPRTAGRRPG,0.688 ± 0.038
8,GAVCRRVWVGSW,0.674 ± 0.0089
9,GAVRAVAGGGAR,0.711 ± 0.067
10,GAVVGGRCFCRR,0.715 ± 0.012
11,GCARLPALCCMF,0.694 ± 0.039
12,GCCCVMNQLRRR,0.777 ± 0.088
13,GCELVISCAHPV,0.695 ± 0.063
14,GCFRGLYVVRGG,0.647 ± 0.039
15,GCFVGCDHWGVV,0.67 ± 0.028
16,GCGEGNVRPCEL,0.6347 ± 0.0011
17,GCGFRGVYSCWV,0.678 ± 0.078
18,GCGGGGGAWKGV,0.751 ± 0.056
19,GCGMCDPRCEHY,0.743 ± 0.083
20,GCGSWAWWCGRG,0.894 ± 0.08
21,GCGVGVGASVGR,0.636 ± 0.025
22,GCLHVVGGVCLG,0.69 ± 0.048
23,GCLPSGTPAWFG,0.751 ± 0.052
24,GCMRCTYKGKVK,0.713 ± 0.059
25,GCSVSRIRSAYV,0.672 ± 0.0089
26,GCVGGWLGEGIG,0.627 ± 0.035

row,Sequence,protein stability index
1,GCVSAVSKCFFL,0.751 ± 0.1
2,GDARLAIWSLVT,0.512 ± 0.0098
3,GDIILSFFNFSK,0.666 ± 0.024
4,GDLVRNARSLII,0.72 ± 0.014
5,GDRYFGTPAPSH,0.757 ± 0.021
6,GDYETPSTRSPM,0.67 ± 0.023
7,GEAVGRWSECRS,0.664 ± 0.0091
8,GEDADLVPILLG,0.707 ± 0.044
9,GEFSINDGSGWT,0.7106 ± 0.0045
10,GEGAWNRKKPGD,0.632 ± 0.067
11,GEGRRQIKEEHV,0.6842 ± 0.0042
12,GEGRRWGSFWVG,0.6701 ± 0.0039
13,GEGVPVWNQCVE,0.658 ± 0.0091
14,GEGVVRGDGVRG,0.656 ± 0.041
15,GEIMGEVARREK,0.66 ± 0.048
16,GELGIECREVVG,0.704 ± 0.087
17,GELVVRVGEWGC,0.7051 ± 0.0027
18,GEQAGLSLTAGP,0.678 ± 0.03
19,GERRREKRKNSG,0.726 ± 0.046
20,GESTNVYTTHWI,0.736 ± 0.011
21,GESWCGLVWPGG,0.675 ± 0.013
22,GEVILERKRRKI,0.629 ± 0.057
23,GEVKRSLGQVRG,0.695 ± 0.007
24,GEWRHVFSVTRC,0.7475 ± 0.0025
25,GEWVNLGFGFLF,0.781 ± 0.11
26,GEYYKRKMNGSK,0.718 ± 0.11

row,Sequence,protein stability index
1,GFARICVLLPSS,0.727 ± 0.039
2,GFEIFYLVLGIP,0.52979 ± 0.00023
3,GFETGLGKGAGW,0.714 ± 0.019
4,GFGCVGSIFVIY,0.66 ± 0.018
5,GFGFMGLRFGVD,0.762 ± 0.13
6,GFGPPGPCSYVR,0.691 ± 0.042
7,GFGSGVVAGSSL,0.682 ± 0.044
8,GFISFASRISTS,0.722 ± 0.032
9,GFLEAIMRFCGL,0.719 ± 0.0081
10,GFLVNNCLGFLW,0.782 ± 0.051
11,GFLVPVALCPVV,0.557 ± 0.03
12,GFPGLFCGPVRF,0.742 ± 0.054
13,GFPGSYSKVLCL,0.6619 ± 0.0032
14,GFRPVVAGIGHS,0.6632 ± 0.0061
15,GFSAGVSHSGAG,0.661 ± 0.017
16,GFSRELTLARLI,0.613 ± 0.017
17,GFTGGGRRWLGG,0.713 ± 0.056
18,GFTGWGRRWLGG,0.713 ± 0.059
19,GFVGVGEEEIFG,0.7217 ± 0.006
20,GFVRYPYFAFGR,0.687 ± 0.093
21,GGAGGNLAPGRG,0.638 ± 0.026
22,GGALTADTTIAP,0.662 ± 0.087
23,GGAMLMLAVEGV,0.609 ± 0.044
24,GGAWRGWCVGVR,0.644 ± 0.1
25,GGAYRCFSIQRS,0.687 ± 0.0078
26,GGCAGGGGVVVR,0.6851 ± 0.0046

row,Sequence,protein stability index
1,GGCAGRGGVVVR,0.6904 ± 0.0029
2,GGCEWWSGGRGG,0.733 ± 0.026
3,GGCGGVCGACVV,0.695 ± 0.011
4,GGCGLGGVLEVG,0.676 ± 0.017
5,GGCGNVGVGVSV,0.694 ± 0.012
6,GGCGYGELWAWA,0.7908 ± 0.0038
7,GGCPPFGVSSVG,0.708 ± 0.013
8,GGCRGDGMMGVG,0.552 ± 0.072
9,GGCSCLGVGCLS,0.675 ± 0.045
10,GGCVWWSWGRGG,0.652 ± 0.016
11,GGDARGRGGMPD,0.712 ± 0.12
12,GGDIRGGVRHIG,0.725 ± 0.026
13,GGEGRGRVWEIS,0.686 ± 0.068
14,GGELRPKGVRGV,0.656 ± 0.046
15,GGENGLGGLGVG,0.626 ± 0.14
16,GGFESRVVGGVG,0.526 ± 0.034
17,GGFRDIAYCLVP,0.613 ± 0.0072
18,GGGARWAGLGEG,0.687 ± 0.06
19,GGGCERGVGLLG,0.626 ± 0.066
20,GGGCGLFVFLSL,0.63 ± 0.058
21,GGGCQVSPPSLL,0.7076 ± 0.0024
22,GGGCVGGGSSCA,0.701 ± 0.12
23,GGGGGCGRAGGG,0.714 ± 0.053
24,GGGGGCLSGRLG,0.654 ± 0.028
25,GGGGGCVGRLWG,0.742 ± 0.026
